From patent US12577303B2
Like-named read-outs stand apart in the source and are kept apart here.

Legend:
[1] = biological target: human Sirpα-V1-hFc (human) (UniProt P78324); assay: blocking ELISA: hSirpα-V1-hFc (dimer), hCD47-his
[2] = biological target: human Sirpα-V1 recombinant protein (human) (UniProt P78324); assay: ELISA, subclone supernatant
[3] = biological target: human Sirpα-V2-his (human); assay: ELISA, subclone supernatant
[4] = biological target: human Sirpα-V1-his (human) (UniProt P78324); assay: blocking ELISA: hSirpα-V1-his, hCD47-Fc (dimer)
[5] = biological target: human Sirpα-V1-hFc (human) (UniProt P78324); assay: blocking ELISA: hSirpα (dimer) to hCD47
[6] = biological target: human Sirpα-V1-his (human) (UniProt P78324); assay: blocking ELISA: hSirpα to hCD47 (dimer)
[7] = biological target: human Sirpα-V1 recombinant protein (human) (UniProt P78324); assay: ELISA
[8] = biological target: human Sirpα-V1-his (human) (UniProt P78324); assay: blocking ELISA: hSirpα to hCD47 (dimer); remark: listed apart in the source
[9] = biological target: Cyno Sirpα L932 (cynomolgus); assay: ELISA
[10] = biological target: human Sirpα-V1 recombinant protein (human) (UniProt P78324); assay: ELISA; remark: listed apart in the source
[11] = biological target: human Sirpα-V2-his (human); assay: ELISA
[12] = biological target: Cyno Sirpα L937 (cynomolgus); assay: ELISA
[13] = biological target: Cyno Sirpα L933 (cynomolgus); assay: ELISA
[14] = biological target: Cyno Sirpα L936 (cynomolgus); assay: ELISA
[15] = biological target: human Sirpα-V1-hFc (human) (UniProt P78324); assay: blocking ELISA: hSirpα (dimer) to hCD47; remark: listed apart in the source

Cyno Sirpα L933 (cynomolgus), sequence (chain, as listed by the source): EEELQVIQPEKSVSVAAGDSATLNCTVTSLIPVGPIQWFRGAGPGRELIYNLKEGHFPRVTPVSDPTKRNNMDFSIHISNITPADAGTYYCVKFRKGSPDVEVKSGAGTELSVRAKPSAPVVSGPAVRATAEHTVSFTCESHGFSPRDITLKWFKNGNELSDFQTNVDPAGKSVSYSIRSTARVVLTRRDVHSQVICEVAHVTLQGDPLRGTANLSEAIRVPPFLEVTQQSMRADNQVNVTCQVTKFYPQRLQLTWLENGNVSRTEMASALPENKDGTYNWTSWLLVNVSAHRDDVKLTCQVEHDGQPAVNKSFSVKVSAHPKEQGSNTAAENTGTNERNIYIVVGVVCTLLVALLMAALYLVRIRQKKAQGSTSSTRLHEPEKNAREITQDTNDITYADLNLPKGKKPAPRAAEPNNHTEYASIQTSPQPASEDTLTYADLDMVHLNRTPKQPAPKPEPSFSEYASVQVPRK
Cyno Sirpα L937 (cynomolgus), sequence (chain, as listed by the source): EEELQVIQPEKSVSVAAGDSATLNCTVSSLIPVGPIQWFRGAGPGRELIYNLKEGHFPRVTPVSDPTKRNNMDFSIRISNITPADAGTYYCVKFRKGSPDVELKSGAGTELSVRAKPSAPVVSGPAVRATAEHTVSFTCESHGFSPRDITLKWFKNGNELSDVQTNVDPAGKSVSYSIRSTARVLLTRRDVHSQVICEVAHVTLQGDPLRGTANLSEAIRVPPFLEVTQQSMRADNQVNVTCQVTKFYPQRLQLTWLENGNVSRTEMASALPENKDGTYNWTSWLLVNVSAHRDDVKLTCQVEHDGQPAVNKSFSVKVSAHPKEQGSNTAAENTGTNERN
Cyno Sirpα L932 (cynomolgus), sequence (chain, as listed by the source): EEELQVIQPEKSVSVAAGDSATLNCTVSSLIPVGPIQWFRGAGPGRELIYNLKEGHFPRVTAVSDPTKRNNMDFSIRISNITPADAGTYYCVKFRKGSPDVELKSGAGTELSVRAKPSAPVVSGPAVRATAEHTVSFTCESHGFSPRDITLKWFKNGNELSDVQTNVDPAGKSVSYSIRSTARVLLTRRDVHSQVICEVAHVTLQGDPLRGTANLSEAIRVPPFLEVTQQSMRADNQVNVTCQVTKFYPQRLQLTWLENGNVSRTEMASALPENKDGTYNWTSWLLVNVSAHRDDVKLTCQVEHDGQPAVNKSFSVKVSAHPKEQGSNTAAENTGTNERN
Cyno Sirpα L936 (cynomolgus), sequence (chain, as listed by the source): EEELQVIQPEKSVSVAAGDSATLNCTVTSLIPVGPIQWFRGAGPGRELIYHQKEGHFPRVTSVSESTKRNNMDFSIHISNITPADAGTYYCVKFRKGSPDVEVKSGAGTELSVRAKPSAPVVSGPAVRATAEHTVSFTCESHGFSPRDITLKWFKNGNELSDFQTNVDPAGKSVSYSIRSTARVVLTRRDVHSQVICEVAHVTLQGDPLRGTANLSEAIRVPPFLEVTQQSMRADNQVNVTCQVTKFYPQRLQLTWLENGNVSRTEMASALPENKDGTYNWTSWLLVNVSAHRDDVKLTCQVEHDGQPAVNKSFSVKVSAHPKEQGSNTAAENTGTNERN

B1: 14H6E5B5C8G2 (antibody, V domains shown)
VH: QVHLQQPGAELVKPGASVKLSCKASGYNFNIYWINWVKQRPGQGLEWIGNIYPSSISTNYNEKFKTKATLTVDKSSNTVYMQFSSLTSEDSAVYYCARSEGTYYGGRYEGDWFGYWGQGTLVTVSA
VL: DIQMTQTTSSLSASLGDRVTISCRASQDIRNYLNWYQQKPDGTVKLLIYFTSTLHSGVPSRFSGSGSGTDYSLTISNLEQEDIATYFCQQGNTLPWTFGGGTKLEIK
B1 was tested, and the ELISA value of the blocking assay [1] was 0.069, the ELISA value, activity of binding [2] was 1.27 and the ELISA value, activity of binding [3] was 1.25. For the same binder, the ELISA value of the blocking assay [4] was 0.42.

B2: human-murine chimeric antibody mab14c (antibody, V domains shown)
VH: QVHLQQPGAELVKPGASVKLSCKASGYNFNIYWINWVKQRPGQGLEWIGNIYPSSISTNYNEKFKTKATLTVDKSSNTVYMQFSSLTSEDSAVYYCARSEGTYYGGRYEGDWFGYWGQGTLVTVSA
VL: DIQMTQTTSSLSASLGDRVTISCRASQDIRNYLNWYQQKPDGTVKLLIYFTSTLHSGVPSRFSGSGSGTDYSLTISNLEQEDIATYFCQQGNTLPWTFGGGTKLEIKR
In the case of B2, the IC50 [5] is reported as 5.7 nM, the IC50 [6] is reported as 9.98 nM and the EC50 [7] is reported as 0.093 nM. The IC50 [8] was 5.54 nM, the EC50 [9] was 0.1 nM and the EC50 [10] was 0.16 nM. The EC50 [11] was 0.14 nM, the EC50 [12] was 0.099 nM and the EC50 [13] was 0.14 nM. It also gave an EC50 [14] of 0.099 nM and an IC50 [15] of 5.48 nM.

B3: mab14-h2 (antibody, V domains shown)
VH: QVQLVQSGAEVKKPGASVKVSCKASGYNFNIYWINWVKQAPGQGLEWIGNIYPSSISTNYNEKFKTKATLTVDKSTSTVYMEFSSLRSEDTAVYYCARSEGTYYGGRYEGDWFGYWGQGTLVTVSS
VL: DIQMTQSPSSLSASVGDRVTITCRASQDIRNYLNWYQQKPGGTVKLLIYFTSTLHSGVPSRFSGSGSGTDYTLTISSLQPEDFATYYCQQGNTLPWTFGGGTKVEIKR
Work on B3 yielded an EC50 [7] of 0.073 nM.

B4: mab14-h3 (antibody, V domains shown)
VH: QVQLVQSGAEVKKPGASVKVSCKASGYNFNIYWINWVRQAPGQGLEWMGNIYPSSISTNYNEKFKTRATLTVDTSTSTVYMELSSLRSEDTAVYYCARSEGTYYGGRYEGDWFGYWGQGTLVTVSS
VL: DIQMTQSPSSLSASVGDRVTITCRASQDIRNYLNWYQQKPGGTVKLLIYFTSTLHSGVPSRFSGSGSGTDYTLTISSLQPEDFATYYCQQGNTLPWTFGGGTKVEIKR
B4 gave an EC50 [7] of 0.103 nM.

B5: mab14-h4 (antibody, V domains shown)
VH: QVQLVQSGAEVKKPGASVKVSCKASGYNFNIYWINWVRQAPGQGLEWIGNIYPSSISTNYNEKFKTRATLTVDTSTSTVYMELSSLRSEDTAVYYCARSEGTYYGGRYEGDWFGYWGQGTLVTVSS
VL: DIQMTQSPSSLSASVGDRVTITCRASQDIRNYLNWYQQKPGGTVKLLIYFTSTLHSGVPSRFSGSGSGTDYTLTISSLQPEDFATYYCQQGNTLPWTFGGGTKVEIKR
B5 showed an EC50 [7] of 0.088 nM.

B6: mab14-h5 (antibody, V domains shown)
VH: QVQLVQSGAEVKKPGASVKVSCKASGYNFNIYWINWVRQAPGQGLEWIGNIYPSSISTNYNEKFKTRATLTVDKSTSTVYMELSSLRSEDTAVYYCARSEGTYYGGRYEGDWFGYWGQGTLVTVSS
VL: DIQMTQSPSSLSASVGDRVTITCRASQDIRNYLNWYQQKPGGTVKLLIYFTSTLHSGVPSRFSGSGSGTDYTLTISSLQPEDFATYYCQQGNTLPWTFGGGTKVEIKR
B6 gave an IC50 [6] of 8.47 nM, an EC50 [7] of 0.061 nM and an IC50 [15] of 8.99 nM.

B7: mab14-h6 (antibody, V domains shown)
VH: QVQLVQSGAEVKKPGASVKVSCKASGYNFNIYWINWVKQAPGQGLEWIGNIYPSSISTNYNEKFKTRATLTVDTSTSTVYMELSSLRSEDTAVYYCARSEGTYYGGRYEGDWFGYWGQGTLVTVSS
VL: DIQMTQSPSSLSASVGDRVTITCRASQDIRNYLNWYQQKPGGTVKLLIYFTSTLHSGVPSRFSGSGSGTDYTLTISSLQPEDFATYYCQQGNTLPWTFGGGTKVEIKR
B7 gave an EC50 [7] of 0.095 nM.

B8: mab14-h7 (antibody, V domains shown)
VH: QVQLVQSGAEVKKPGASVKVSCKASGYNFNIYWINWVKQAPGQGLEWIGNIYPSSISTNYNEKFKTKATLTVDTSTSTVYMELSSLRSEDTAVYYCARSEGTYYGGRYEGDWFGYWGQGTLVTVSS
VL: DIQMTQSPSSLSASVGDRVTITCRASQDIRNYLNWYQQKPGGTVKLLIYFTSTLHSGVPSRFSGSGSGTDYTLTISSLQPEDFATYYCQQGNTLPWTFGGGTKVEIKR
B8 gave an EC50 [7] of 0.081 nM.
